Laboratory results as given in patent US20230136301A1, “Corticosteriod Reduction in Treatment with Anti-CD38 Antibody” (Janssen Biotech, Inc., priority 2021, published 2023).
Entries after “also recorded” stand apart in the source; their conditions may differ.

Experiments:
[1] = tested on: patients with multiple myeloma; conditions: COLUMBA, cited from earlier work
patients with RRMM [2] = experiment: PAVO Part 1: DARA MD safety and efficacy
patients with RRMM [3] = conditions: DARA MD 1,800 mg; PAVO Part 1; median follow-up 8.3 months; cited from earlier work
patients with RRMM [4] = conditions: in vivo
patients with RRMM [5] = experiment: PAVO Part 3: immunogenicity (anti-daratumumab and anti-rHuPH20 antibodies); type: in vivo, human
Protocol: For evaluation of immunogenicity, anti-daratumumab antibodies in serum and anti-rHuPH20 antibodies in plasma were assessed pre-dose on Cycle 1 Day 1, Cycle 1 Day 15, Cycle 2 Day 22, Cycle 4 Day 1 and 4- and 8-weeks post-treatment. The presence of anti-daratumumab and/or anti-rHuPH20 antibodies was assessed for classification as neutralizing antibodies.

## DARA IV: daratumumab 16 mg/kg given by intravenous infusion
[1]; follow-up 7.5 months
  Median duration of response: not reached
[1]; median follow-up 7.5 months
  Overall response rate: 37%

## DARA MD: mix-and-deliver formulation of daratumumab (20 mg/mL) and rHuPH20 given subcutaneously by syringe pump
Patients with RRMM [2]
  Anemia, TEAE of Grade >3: 15.6%
  Serious TEAEs in SOC General disorders and administration site conditions: 6.7%
  TEAEs in SOC General disorders and administration site conditions: 71.1%
Patients with RRMM [3]
  ORR: 42.2%
Patients with RRMM [4]
  Serious TEAEs in SOC Infections and infestations: 17.8%
  TEAEs in SOC Infections and infestations: 71.1%

## daratumumab: human IgG1/κ anti-CD38 monoclonal antibody; heavy chain SEQ ID NO:12, light chain SEQ ID NO:13
Patients with RRMM [5]; daratumumab immunogenicity-evaluable n=41
  Patients positive for anti-daratumumab antibodies: no patient tested positive; also recorded: no patients evaluable for daratumumab immunogenicity were positive

B1: rHuPH20: recombinant hyaluronidase having the amino acid sequence of SEQ ID NO: 22 (protein, listed as Homo sapiens)
chain: LNFRAPPVIPNVPFLWAWNAPSEFCLGKFDEPLDMSLFSFIGSPRINATGQGVTIFYVDRLGYYPYIDSITGVTVNGGIPQKISLQDHLDKAKKDITFYMPVDNLGMAVIDWEEWRPTWARNWKPKDVYKNRSIELVQQQNVQLSLTEATEKAKQEFEKAGKDFLVETIKLGKLLRPNHLWGYYLFPDCYNHHYKKPGYNGSCFNVEIKRNDDLSWLWNESTALYPSIYLNTQQSPVAATLYVRNRVREAIRVSKIPDAKSPLPVFAYTRIVFTDQVLKFLSQDELVYTFGETVALGASGIVIWGTLSIMRSMKSCLLLDNYMETILNPYIINVTLAAKMCSQVLCQEQGVCIRKNWNSSDYLHLNPDNFAIQLEKGGKFTVRGKPTLEDLEQFSEKFYCSCYSTLSCKEKADVKDTDAVDVCIADGVCIDAFLKPPMETEEPQIFY
Patients with RRMM [5]; 1-week taper
  Patients positive for treatment-emergent anti-rHuPH20 antibodies: 1 (9.1%) n (%)
Patients with RRMM [5]; 2-week taper
  Patients positive for treatment-emergent anti-rHuPH20 antibodies: 3 (20.0%) n (%)
Patients with RRMM [5]; 3-week taper
  Patients positive for treatment-emergent anti-rHuPH20 antibodies: 6 (40.0%) n (%)
Patients with RRMM [5]; all cohorts
  Neutralizing anti-rHuPH20 antibodies: None of the anti-rHuPH20 antibodies were neutralizing antibodies
